Here are results for two substances from PMC2693456.

Experiment [1] addresses BiP (Grp78, hsp70 isoform 5) (UniProt P06761). Nature of the experiment: biotin-peptide streptavidin pull-down, immunoblot. Conditions: reference: nonphospho-peptide; sites S256. For orientation: A western blot detects proteins with antibodies after separation by electrophoresis.
Experiment [2] has the same target. Nature of the experiment: biotin-peptide streptavidin pull-down, LC-MS/MS. The conditions noted are these: reference: nonphospho-peptide.
Experiment [3] concerns the target Heat Shock Protein 70 Isoform 2 (hsp70-2) (UniProt P14659). The experiment is described as follows: biotin-peptide streptavidin pull-down, LC-MS/MS. Conditions: reference: nonphospho-peptide.
The target of a further experiment is annexin II (UniProt Q07936). The experiment is described as follows: biotin-peptide streptavidin pull-down, LC-MS/MS. The conditions noted are these: reference: nonphospho-peptide.
Experiment [4] addresses heat shock cognate 70 (hsc70; hsp70 isoform 8) (UniProt P63018). The experiment is described as follows: biotin-peptide streptavidin pull-down, LC-MS/MS. Conditions: reference: nonphospho-peptide.
The target of experiment [5] is Heat Shock Protein 70 Isoform 1 (hsp70-1). The experiment is described as follows: biotin-peptide streptavidin pull-down, LC-MS/MS. The conditions noted are these: reference: nonphospho-peptide; sites S261.

Take “aquaporin-2 (AQP2) COOH-terminal peptide COOH-terminal tail (from UniProt P34080) pS256 peptide”: the “binding against the reference” value in experiment [1] was “stronger”. Also, the “other: label-free MS quantification vs no-peptide control (Table 2)” value in experiment [2] (sites S256) is “stronger; reference 2.13 ± 0.57”; in experiment [3] (sites S256), “weaker; reference 4.17 ± 0.38”; with annexin II (sites S256), “weaker; reference 3.19 ± 0.32”; in experiment [4] (sites S256) it was “weaker; reference 5.70 ± 0.27”.

On to “aquaporin-2 (AQP2) COOH-terminal peptide COOH-terminal tail (from UniProt P34080) pS261 peptide”, for which the “other: label-free MS quantification vs no-peptide control (Table 2)” value in experiment [2] (sites S261) is reported as “weaker; reference 2.13 ± 0.57”; in experiment [5], “weaker; reference 3.41 ± 0.44”; in experiment [3] (sites S261), “weaker; reference 4.17 ± 0.38”; with annexin II (sites S261), “weaker; reference 3.19 ± 0.32”; in experiment [4] (sites S261) it was “weaker; reference 5.70 ± 0.27”.
